B1: WRTG18616-encoded anti-mPD-1 scFv, dimeric fraction (scFv, part only; not given: glycine-serine linker, V domains shown)
VH: EVRLLESGGGLVKPEGSLKLSCVASGFTFSDYFMSWVRQAPGKGLEWVAHIYTKSYNYATYYSGSVKGRFTISRDDSRSMVYLQMNNLRTEDTATYYCTRDGSGYPSLDFWGQGTQVTVSS
VL: YELTQPPSASVNVGETVKITCSGDQLPKYFADWFHQRSDQTILQVIYDDNKRPSGIPERISGSSSGTTATLTIRDVRAEDEGDYYCFSGYVDSDSKLYVFGSGTQLTVLHHHHHH
modifications: Dimer of two identical scFv polypeptides (first gel-filtration peak); one copy is given. VH and VL are joined in the real chain by a Gly-Ser linker of undisclosed letters and are given here as two chains.

What was measured:
[1] = molecular target: cell-surface mouse PD-1 on EL4 and RMA T lymphoma cells (mouse) (UniProt Q02242); experiment: flow cytometry competition on EL4 cells against mPD-L1-hFc at 2 µg/ml
[2] = molecular target: mouse PD-1 (coated in the competition ELISA) (mouse) (UniProt Q02242); experiment: competition ELISA, blocks mouse PD-L1 biot on coated mouse PD-1; dimeric fraction more efficient than monomeric

Molecule	IC50 [1] [µg/mL]	difference in EC50 against the monomeric scFv [2] [log]
commercially available anti-mPD-1 antibody J43 (BioXCell)	1.6	
B1		1

— US20170157188A1
